Consider one molecule from publication PMC12157784, “Photoelectrochemical Biosensor Based on 1D In2O3 Tube Decorated with 2D ZnIn2S4 Nanosheets for Sensitive PSA Detection”.

The target of this data set is prostate specific antigen (PSA) (UniProt P07288 25-261). Briefly: photoelectrochemical aptasensor (photocurrent decrease); PBS pH 7.4, aptamer immobilised on FTO/In2O3-ZnIn2S4, BSA blocked; linear 0.001-50 ng/mL, LOD 0.00037 ng/mL (not a Kd); PSA incubated 30 min at room temperature on aptamer electrode; 0.01 M PBS pH 7.4 as incubation/wash buffer; photocurrent read in 0.1 M ascorbic acid.
Chain of prostate specific antigen (PSA) (P07288 25-261): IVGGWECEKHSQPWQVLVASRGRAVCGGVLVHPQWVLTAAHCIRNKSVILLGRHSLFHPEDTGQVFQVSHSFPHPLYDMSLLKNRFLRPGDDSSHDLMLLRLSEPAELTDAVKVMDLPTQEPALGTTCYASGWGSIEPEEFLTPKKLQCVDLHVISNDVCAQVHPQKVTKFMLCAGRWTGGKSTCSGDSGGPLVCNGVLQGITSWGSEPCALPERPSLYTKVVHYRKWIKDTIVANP

On to ATTAAAGCTCGCCATCAAATAGC (ssDNA, 5'-NH2-(CH2)6) [PSA aptamer], for which the binding result is “binds”.
